Measured values reported in PMC3905892 (Nucleic Acids Research, 2013).

Biological target: Paf1(57–392) (human, UniProt Q8N7H5 57-392)
Test: SEC

stoichiometry N: 1
B1: Leo1(277–562) (domain or fragment)
chain: SDSEDEVLRMKRKNAIASDSEADSDTEVPKDNSGTMDLFGGADDISSGSDGEDKPPTPGQPVDENGLPQDQQEEEPIPETRIEVEIPKVNTDLGNDLYFVKLPNFLSVEPRPFDPQYYEDEFEDEEMLDEEGRTRLKLKVENTIRWRIRRDEEGNEIKESNARIVKWSDGSMSLHLGNEVFDVYKAPLQGDHNHLFIRQGTGLQGQAVFKTKLTFRPHSTDSATHRKMTLSLADRCSKTQKIRILPMAGRDPECQRTEMIKKEEERLRASIRRESQQRRMREKQHQ
